# Reference: article PMC5501590
# Key:
# [1] = Myc immunoblot of HEK293 medium, with/without Ni-NTA enrichment; settings: glycan lost; control: wild type
# [2] = Myc immunoblot of HEK293 whole cell lysates; settings: glycan lost; control: wild type
Protein,expression_or_secretion [1],expression_or_secretion [2]
rat IGSF1-2 (IGSF1 isoform 2): N44Q (protein) parent chain: MMLRTFTLLLLCIWLNRGMTSMAAVESQPELWIESNYPQAPWENITLWCKSPSRVSSKFLLLKDNTQMTWIHPPYKTFQVSFFIGALTESNTGLYRCCYWNEKGWSKPSKILELEAPGQLPKPIFWIQAETPPFPGCNVNILCHGWLQDLVFMLFKEGYTEPIDYQVPTGTMAIFSIDNLAPENEGIYICRTHIQMLPTLWSEPSNPLKLVVAGGCAHGCWHLTIVIPGIMAG,no change,no change
murine IGSF1-2 (IGSF1 isoform 2): N43Q (protein) parent chain: MMLRTFTLLLLCIWLNPGMTSLAVESQPELWIESNYPQAPWENITLWCKSPSRVSSKFLLLKDNSQMTWIRPPYKTFQVSFFIGALTESNTGLYRCCYWKEKGWSKPSKILELEAPGQLPKPIFWIQAETPPLPGCNVNIFCHGWLQDLVFMLFKEGYTEPVDYQVPTGTMAIFSIDNLAPENEGVYICRTHIQMLPTLWSEPSNPLKLVVAGGCGHGCWHLTIVIPGIMAG,no change,no change
